Common to all, as to test: ITC
For orientation: ITC needs no label: the signal is the heat of the interaction.

Data set [1] concerns IE1-CTD (chromatin-tethering domain peptide);human histone octamer WT (human cytomegalovirus;Homo sapiens).
Data set [2] has the same test system. The source holds these as a separate data set.
The test system of data set [3] is IE1 full length;human histone octamer WT (human cytomegalovirus (Towne);Homo sapiens).

Like-named read-outs stand apart in the source and are kept apart here.

As to 147-bp Widom 601 (human NCP), the values for the dissociation constant (Kd) in data set [1], in data set [2] and in data set [3] were 2250 nM, 400 nM and 11.3 µM, respectively.

The record behind these values is PMC4764553, “Human cytomegalovirus IE1 protein alters the higher-order chromatin structure by targeting the acidic patch of the nucleosome” (eLife, 2016).
